Measurements: PMC7468209, “The Nucleoid Occlusion Protein SlmA Binds to Lipid Membranes” (mBio, 2020)

Target: the molecule itself
Experiment: AUC; sedimentation velocity, 5 uM SlmA without SBS, working buffer (50 mM Tris-HCl pH 7.5, 5 mM MgCl2) with 100, 300 or 500 mM KCl, 48,000 rpm, 20 C, absorbance at 230 nm, c(s) in SEDFIT

B1: SlmA (natural protein, E. coli, UniProt P0C093 1-198, looked up)
chain: MAEKQTAKRNRREEILQSLALMLESSDGSQRITTAKLAASVGVSEAALYRHFPSKTRMFDSLIEFIEDSLITRINLILKDEKDTTARLRLIVLLLLGFGERNPGLTRILTGHALMFEQDRLQGRINQLFERIEAQLRQVLREKRMREGEGYTTDETLLASQILAFCEGMLSRFVRSEFKYRPTDDFDARWPLIAAQLQ
modifications: Alexa Fluor 488 on amino groups (0.3-0.6 mol dye per mol protein), only in the tracer fraction (1 uM of 5 uM) of the microdroplet experiments; unlabelled in the sedimentation velocity experiments
notes: SlmA, nucleoid occlusion protein of Escherichia coli; also called nucleoid occlusion protein SlmA; nucleoid occlusion factor SlmA
stoichiometry N: 2
